Paper PMC2836074 (The Journal of Biological Chemistry, 2009)

Legend:
[1] = target: EGFP-F1LΔBH3 (vaccinia virus strain Copenhagen, UniProt P68450 1-226, lacks amino acids 93–108); experiment: co-IP
[2] = target: EGFP-F1LΔBH1 (vaccinia virus strain Copenhagen, UniProt P68450 1-226, lacks amino acids 144–156); experiment: co-IP

B1: HA-Bak (natural protein)
chain: MASGQGPGPPRQECGEPALPSASEEQVAQDTEEVFRSYVFYRHQQEQEAEGVAAPADPEMVTLPLQPSSTMGQVGRQLAIIGDDINRRYDSEFQTMLQHLQPTAENAYEYFTKIATSLFESGINWGRVVALLGFGYRLALHVYQHGLTGFLGQVTRFVVDFMLHHCIARWIAQRGGWVAALNLGNGPILNVLVVLGVVLLGQFVVRRFFKS
Question: Which results are given for B1?
Answer: fold decrease in Bak binding compared with wild-type F1L [1]: 3 fold; fold decrease in Bak binding compared with wild-type F1L [2]: 8 fold
